Laboratory results published in article PMC10658506 (2023).

T1: soluble human IL-11 receptor extracellular domain, his-tagged (human, UniProt Q14626 24-370)
T1 chain: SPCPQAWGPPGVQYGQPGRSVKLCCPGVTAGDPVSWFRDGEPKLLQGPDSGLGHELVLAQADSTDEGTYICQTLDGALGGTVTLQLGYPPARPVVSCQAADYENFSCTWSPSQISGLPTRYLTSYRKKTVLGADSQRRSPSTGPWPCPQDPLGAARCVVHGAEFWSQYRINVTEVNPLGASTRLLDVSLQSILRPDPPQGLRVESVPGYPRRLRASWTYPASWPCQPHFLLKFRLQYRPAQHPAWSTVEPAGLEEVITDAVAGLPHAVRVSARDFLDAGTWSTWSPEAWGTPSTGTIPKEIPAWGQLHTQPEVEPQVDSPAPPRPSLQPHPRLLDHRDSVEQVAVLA


Target: T1, soluble human IL-11 receptor …
Experiment: FACS

Kd | Binder
0.22 nM | yeast-displayed IL-11 IPR (ligand) PGPPPGPPRVSPDPRAELDSIVLLTRSLLADTRQLAAQLRDKFPADGDHNLDSLPTPAMSARALGALQLPGVLTRLRADLLSYLRHVQWLRRAGGSSLKTLEPELGTLQARLDRLLRRLQLLMSRLALPQPPPDPPAPPLAPPSSAWGGIRAAHAILGGLHLTLDWAVRGLLLLKTRL
8.2 nM | yeast-displayed wild-type human IL-11 (ligand) PGPPPGPPRVSPDPRAELDSTVLLTRSLLADTRQLAAQLRDKFPADGDHNLDSLPTLAMSAGALGALQLPGVLTRLRADLLSYLRHVQWLRRAGGSSLKTLEPELGTLQARLDRLLRRLQLLMSRLALPQPPPDPPAPPLAPPSSAWGGIRAAHAILGGLHLTLDWAVRGLLLLKTRL
0.29 nM | yeast-displayed IL-11 GIPRDM (ligand) PGPPPGPPRVSPDPRAELGSIVLLTRSLLADTRQLAAQLRDKFPADGDHNLDSLPTPAMSARALGALQLPDMLTRLRADLLSYLRHVQWLRRAGGSSLKTLEPELGTLQARLDRLLRRLQLLMSRLALPQPPPDPPAPPLAPPSSAWGGIRAAHAILGGLHLTLDWAVRGLLLLKTRL
0.19 nM | yeast-displayed IL-11 GIPRD (ligand) PGPPPGPPRVSPDPRAELGSIVLLTRSLLADTRQLAAQLRDKFPADGDHNLDSLPTPAMSARALGALQLPDVLTRLRADLLSYLRHVQWLRRAGGSSLKTLEPELGTLQARLDRLLRRLQLLMSRLALPQPPPDPPAPPLAPPSSAWGGIRAAHAILGGLHLTLDWAVRGLLLLKTRL
